Common to all, as to assay: fluorescence polarisation; FITC-tagged peptide ('2 nm' [sic]) with importin two-fold serially diluted from 4.5 µM across 23 wells, 200 µl, GST Buffer A (50 mM Tris, 125 mM NaCl); three independent experiments
In experiment [1] the target is Synthetic FITC labelled AAV 09YN Cap-BR peptide (residues 117-167).
Experiment [2] addresses AAV 09YN Cap-BR-mMINOR+mMAJOR (FITC labelled peptide, residues 117-167, minor and major site mutant).
Experiment [3] has as its target AAV 09YN Cap-BR-mMINOR (FITC labelled peptide, residues 117-167, minor site mutant).
Experiment [4] deals with AAV 09YN Cap-BR-mMAJOR (FITC labelled peptide, residues 117-167, major site mutant).

One may read the Kd as a measure of binding affinity in units of concentration. High values mean lower affinity, low ones higher affinity.

In turn, “Human importin α1 lacking the IBB domain (hImpα1DIBB) (domain or fragment)” registered a Kd in experiment [1] of 483 nM.

With “Human importin α3 lacking the IBB domain (hImpα3DIBB) (domain or fragment)”, the Kd in experiment [1] is 1 nM; in experiment [2] it was 1.4 nM; in experiment [3] it was 1.6 nM; in experiment [4], 1.2 nM.

Substance “Human importin α5 lacking the IBB domain (hImp5DIBB) (domain or fragment)” showed a Kd in experiment [1] of 862 nM.

With “Human importin α7 lacking the IBB domain (hImpα7DIBB) (domain or fragment)”, in experiment [1], the Kd is 11 nM.

In the case of “Human importin β (hImpβ) (from UniProt Q14974 1-876) (natural protein)”, the Kd in experiment [1] stood at 1140 nM.

(Values after paper PMC10999750.)
